Assay [1] deals with VA Peptide (fluorescence polarization) (FITC on the C-terminal lysine). As to the kind of experiment: fluorescence polarization, FITC peptide titrated with protein. (In fluorescence polarisation assays a small probe gives low polarisation when free and higher when bound to something large.)
Assay [2] deals with T1, AA Peptide (fluorescence polarization), AAKLDEESILKQ{LYS(FITC)}.
T1 peptide: AAKLDEESILKQK(FITC)
The description is as above.

In assay [3] the target is T2, MA Peptide (fluorescence polarization).
T2 peptide: MAKLDEESILKQK(FITC)
The assay is described as above.

Assay [4] concerns the target T3, MA peptide (Octet assay of PS557 variants).
T3 construct: Peptide coated on the Octet sensor
The assay can be described thus: Octet (BLI), peptide on sensor, response after 200 s association. From the text: (§1) In the high-throughput assay, Octet sensors are coated with the peptide of interest and dipped in buffer containing the purified protein. […] Studying the on and off-rate can also give insight into the mechanism of binding.
(In general: In BLI a coated tip is dipped into the sample, and binding shifts an interference pattern.)

The target in assay [5] is T4, LA peptide (Octet assay of PS557 variants).
T4 construct: Peptide coated on the Octet sensor
Described as above.
From the text: as §1

Assay [6] addresses T5, IA peptide (Octet assay of PS557 variants).
T5 construct: Peptide coated on the Octet sensor
Described as above.
From the text: as §1

For assay [7], the target named is T6, AA peptide (Octet assay of PS557 variants).
T6 construct: Peptide coated on the Octet sensor
The assay is described as above.
From the text: as §1

For assay [8], the target named is T7, VA peptide (Octet assay of PS557 variants).
T7 construct: Peptide coated on the Octet sensor
The assay is described as above.
From the text: as §1

For assay [9], the target named is T8, FA peptide (Octet assay of PS557 variants).
T8 construct: Peptide coated on the Octet sensor
The assay is described as above.
From the text: as §1

For assay [10], the target named is T9, LA Peptide (fluorescence polarization).
T9 peptide: LAKLDEESILKQK(FITC)
As to the kind of experiment: fluorescence polarization, FITC peptide titrated with protein.

The target in assay [11] is T3, MA peptide (Octet assay of PS557 …). The assay can be described thus: Octet (BLI), peptide on sensor, response after 200 s association. From the text:
(§2) In the high-throughput assay, Octet sensors are coated with the peptide of interest and dipped in buffer containing the purified protein. An approximation of relative binding can be obtained by comparing the response after 200 seconds for each protein. Each protein has approximately the same molecular mass and is used at the same concentration, so ranking the proteins by response level in this assay gives an approximation of which proteins have improved binding. Studying the on and off-rate can also give insight into the mechanism of binding.
This is another data set of the same source.

The target of assay [12] is T5, IA peptide (Octet assay of PS557 …). The description is as above.
From the text: as §2
This is another data set of the same source.

Assay [13] has as its target T10, YA peptide (Octet assay of PS557 variants).
T10 construct: Peptide coated on the Octet sensor
Described as above.
From the text: as §2

The target of assay [14] is T11, WA peptide (Octet assay of PS557 variants).
T11 construct: Peptide coated on the Octet sensor
The assay is described as above.
From the text: as §2

The target of assay [15] is T8, FA peptide (Octet assay of PS557 …). The assay is described as above.
From the text: as §2
The source holds these as a separate data set.

Assay [16] addresses T12, RA peptide (XAKLDEESILKQK-FITC, X = R).
T12 construct: also called peptide with N-terminal arginine
T12 peptide: RAKLDEESILKQK(FITC)
As to the kind of experiment: fluorescence polarization titration, PS621 0-5000 nM. The procedure: (§3) Binding affinity was measured by polarization using a labeled peptide. The polarization response and total intensity measurements were carried out at 20° C. on a microplate fluorometer with 480 nm excitation and 530 nm emission. […] Multiple analyses were performed at increasing recognizer concentration at a fixed concentration of a target peptide to obtain a titration curve. An equilibrium polarization response at each concentration was plotted and fit to calculate the KD.
(§4) Fluorescence polarization assays were performed with all candidates, and single point binding responses were measured at a fixed concentration of the binders (FIG. 13A). […] We carried out multiple polarization binding titration analysis at increasing concentration of binder protein, and the Kds were determined from the titration curves (FIG. 13B).

Assay [17] has as its target T13, second R of YRELRLLK (RLLK).
T13 construct: also called parent peptide after cleavage to the second arginine
T13 peptide: RLLK
The assay can be described thus: on-chip single-molecule dynamic sequencing, example traces, time axis 0-600 min.

For assay [18], the target named is T14, HA peptide (XAKLDEESILKQK-FITC, X = H).
T14 construct: also called peptide with N-terminal histidine
T14 peptide: HAKLDEESILKQK(FITC)
As to the kind of experiment: fluorescence polarization titration, 20 C. The procedure:
as §3, §4

The target in assay [19] is T12, RA peptide (XAKLDEESILKQK-FITC, X = R). As to the kind of experiment: fluorescence polarization titration, 20 C. The method, then:
as §3, §4

Where a chain is given by its changes, count along the chain named. Names and notes keep the numbering of the source. Read-outs that look alike come from different tables or passages of the source. No end group written: not given here. *: point of attachment. FITC = O=C1OC2(c3ccc(O)cc3Oc3cc(O)ccc32)c2ccc(NC(=S)*)cc21

B1: PS769 (designed binder)
chain: MPTAASATESAIEDTPAPARPEVDGRTKPKRQPRYHVVLWDDDDHTYQYVVVMLQSLFGHPPERGYRLAKEVDTQGRVIVLTTTREHAELKRDQIHAFGYDRLLARSKGSMKASIEAEE
notes: Variant of PS557; also called N41D
On to B1, for which the results for the Kd in [1] and in assay [2] were 276 nM and 8700 nM, respectively.

B2: PS816 (designed binder)
chain: B1 chain with V72M
notes: Variant of PS557; also called N41D, V72M
As to B2, the Kd (as a rule, the equilibrium constant for the complex coming apart) in assay [1] turned out to be 266 nM; in assay [2], 7590 nM; in [3] it was 805 nM.

B3: PS963 (designed binder)
chain: B1 chain with Q55R, E63A, V72M, Y100R
notes: Variant of PS557
On to B3, for which the Octet response in assay [4] came to 8.4 nm; in [5], 9.65 nm; in assay [6], 10.2 nm; in [7], 4.06 nm; in [8], 10.4 nm; in assay [9], 2.25 nm.

B4: PS824 (designed binder)
chain: B1 chain with I12F, Q55R, V72M
notes: Variant of PS557
Turning to B4, the Kd in assay [1] came to 205 nM; in assay [2], 6770 nM; in [10], 10 nM; in [3], 648 nM. Further, the Octet response came to 9.5 nm in [11]; 13.5 nm in assay [12]; 1.31 nm in assay [13]; 0.165 nm in assay [14]; 0.673 nm in assay [15].

B5: PS962 (designed binder)
chain: B1 chain with Q55R, P62Y, E63A, V72M, Y100R
notes: Variant of PS557
As for B5, the Octet response in assay [4] was found to be 8.37 nm; in assay [5] it was 10.5 nm; in assay [6] it was 10.7 nm; in [7], 3.76 nm; in assay [8], 10.7 nm; in [9] it was 2.57 nm.

B6: PS960 (designed binder)
chain: B1 chain with Q55R, H60I, V72M
notes: Variant of PS557
Turning to B6, the Octet response was determined as 6.86 nm in [4]; 10.5 nm in [5]; 9.98 nm in assay [6]; 1.68 nm in assay [7]; 9.29 nm in assay [8]; 0.0851 nm in assay [9].

B7: PS961 (designed binder)
chain: B1 chain with Q55R, E63S, L68M, V72M, Y100R
notes: Variant of PS557; also called N41D, V72M, Q55R, E63S, L68M, Y100R
As to B7, the Octet response in assay [4] was found to be 9.26 nm; in assay [5] it was 11.8 nm; in assay [6], 11.5 nm; in [7], 4.87 nm; in assay [8] it was 11.3 nm; in assay [9], 2.05 nm. Further, the Kd in [2] came to 3300 nM; in assay [3], 143 nM.

B8: PS852 (designed binder)
chain: B1 chain with R31H, Q55R, V72M
notes: Variant of PS557
Turning to B8, the dissociation constant Kd was found to be 142 nM in assay [1], 5140 nM in [2], 19 nM in assay [10] and 1140 nM in assay [3]. In addition, the Octet response is 5.48 nm in assay [11]; 9.38 nm in [12]; 0.177 nm in assay [13]; 0.0292 nm in assay [14]; 0.102 nm in [15].

B9: PS857 (designed binder)
chain: B1 chain with L68M, V72M
notes: Variant of PS557; also called N41D, V72M, L68M
B9: the Kd is 487 nM in [1], 15000 nM in [2], 7 nM in assay [10] and 746 nM in assay [3].

B10: PS621 (other)
chain: MHSKFSHAGRICGAKFKVGEPIYRCKECSFDDTCVLCVNCFNPKDHTGHHVYTTICTEFNNGICDCGDKEAWNHTLFCKAEEG
notes: tag of the assay construct not specified; also called UBR protein from Kluyveromyces marxianus
For the molecule B10, the figures for the Kd in assay [16], in assay [18] and in assay [19] were 475 nM, 6770 nM and 475 nM, respectively. The binding result in assay [17] is “binds”.

(Values after US20240272170A1 (QUANTUM SI, published 2024).)
